Data on 36 molecules can be found in US20080044360A1 (COLLAGEN MEDICAL, published 2008).

Assay [1] deals with T1, rat collagen, acid soluble, type I, rat tail (Upstate 08-115) (rat, UniProt P02454 152-1207; P02466 86-1125).
T1 construct: tissue extract, gelled and dried in wells; also called dried rat collagen
Briefly: dried collagen assay.

Assay [2] has as its target T2, human collagen type I, acid soluble, extracted from placenta (Sigma C7774) (human, UniProt P02452 162-1218; P08123 80-1119).
T2 construct: tissue extract, gelled and dried in wells; also called dried human collagen; h-Collagen
Nature of the assay: dried collagen assay.

Bridge positions count the residues as written; N and C are the ends. Square brackets hold non-standard residues; d marks the D form. Primed or numbered codes have the meaning given here. Side chains are listed from the residue outwards. Ends that are not written are not given here. * marks the point of attachment. Phe(4-tBu) = CC(C)(C)c1ccc(C[C@H](N)C(=O)O)cc1; Tyr(3-Cl) = N[C@@H](Cc1ccc(O)c(Cl)c1)C(=O)O; Bip = N[C@@H](Cc1ccc(-c2ccccc2)cc1)C(=O)O; Tyr(3-I) = N[C@@H](Cc1ccc(O)c(I)c1)C(=O)O; Dip = N[C@H](C(=O)O)C(c1ccccc1)c1ccccc1; Phe(4-NH2) = Nc1ccc(C[C@H](N)C(=O)O)cc1; Gd^T(3) = GdDTPA attached via thiourea; d1Nal = N[C@H](Cc1cccc2ccccc12)C(=O)O; Lys(Gd^T)Gd^T = not defined here; Pen = CC(C)(S)[C@H](N)C(=O)O; Gd^G = not defined here; Gd^T = not defined here; Gd^T″ = GdDTPA-thiourea; Cbz = O=C(OCc1ccccc1)*; Dap = NC[C@H](N)C(=O)O

T1 sequence (P02454 152-1207, chain 1 of 2): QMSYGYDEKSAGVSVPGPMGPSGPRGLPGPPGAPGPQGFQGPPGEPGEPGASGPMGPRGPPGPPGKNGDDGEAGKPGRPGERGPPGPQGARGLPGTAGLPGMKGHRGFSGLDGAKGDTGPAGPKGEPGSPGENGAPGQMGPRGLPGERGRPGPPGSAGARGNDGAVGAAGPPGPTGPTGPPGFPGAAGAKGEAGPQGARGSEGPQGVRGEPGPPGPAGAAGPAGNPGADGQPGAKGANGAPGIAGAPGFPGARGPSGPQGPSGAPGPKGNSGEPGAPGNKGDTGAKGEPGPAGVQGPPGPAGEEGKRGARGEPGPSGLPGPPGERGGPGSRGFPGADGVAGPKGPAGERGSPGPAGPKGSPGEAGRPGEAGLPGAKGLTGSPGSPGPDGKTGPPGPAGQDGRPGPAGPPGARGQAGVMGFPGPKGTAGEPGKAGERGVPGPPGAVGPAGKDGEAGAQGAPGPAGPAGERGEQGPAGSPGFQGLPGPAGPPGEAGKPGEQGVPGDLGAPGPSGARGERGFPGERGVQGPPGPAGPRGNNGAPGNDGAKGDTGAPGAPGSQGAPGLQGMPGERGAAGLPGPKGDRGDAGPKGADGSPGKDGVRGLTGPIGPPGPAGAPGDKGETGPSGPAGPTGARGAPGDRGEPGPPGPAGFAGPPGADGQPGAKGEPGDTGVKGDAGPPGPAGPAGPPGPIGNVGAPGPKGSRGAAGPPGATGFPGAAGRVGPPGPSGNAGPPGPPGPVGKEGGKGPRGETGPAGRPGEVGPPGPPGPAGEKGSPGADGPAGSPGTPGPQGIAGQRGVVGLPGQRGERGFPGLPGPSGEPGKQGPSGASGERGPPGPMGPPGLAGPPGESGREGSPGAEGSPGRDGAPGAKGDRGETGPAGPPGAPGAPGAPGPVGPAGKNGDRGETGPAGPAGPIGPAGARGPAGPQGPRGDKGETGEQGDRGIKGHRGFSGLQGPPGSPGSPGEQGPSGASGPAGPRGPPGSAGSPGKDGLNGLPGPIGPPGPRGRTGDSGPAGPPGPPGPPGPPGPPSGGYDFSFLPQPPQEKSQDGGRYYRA
T1 sequence (P02466 86-1125, chain 2 of 2): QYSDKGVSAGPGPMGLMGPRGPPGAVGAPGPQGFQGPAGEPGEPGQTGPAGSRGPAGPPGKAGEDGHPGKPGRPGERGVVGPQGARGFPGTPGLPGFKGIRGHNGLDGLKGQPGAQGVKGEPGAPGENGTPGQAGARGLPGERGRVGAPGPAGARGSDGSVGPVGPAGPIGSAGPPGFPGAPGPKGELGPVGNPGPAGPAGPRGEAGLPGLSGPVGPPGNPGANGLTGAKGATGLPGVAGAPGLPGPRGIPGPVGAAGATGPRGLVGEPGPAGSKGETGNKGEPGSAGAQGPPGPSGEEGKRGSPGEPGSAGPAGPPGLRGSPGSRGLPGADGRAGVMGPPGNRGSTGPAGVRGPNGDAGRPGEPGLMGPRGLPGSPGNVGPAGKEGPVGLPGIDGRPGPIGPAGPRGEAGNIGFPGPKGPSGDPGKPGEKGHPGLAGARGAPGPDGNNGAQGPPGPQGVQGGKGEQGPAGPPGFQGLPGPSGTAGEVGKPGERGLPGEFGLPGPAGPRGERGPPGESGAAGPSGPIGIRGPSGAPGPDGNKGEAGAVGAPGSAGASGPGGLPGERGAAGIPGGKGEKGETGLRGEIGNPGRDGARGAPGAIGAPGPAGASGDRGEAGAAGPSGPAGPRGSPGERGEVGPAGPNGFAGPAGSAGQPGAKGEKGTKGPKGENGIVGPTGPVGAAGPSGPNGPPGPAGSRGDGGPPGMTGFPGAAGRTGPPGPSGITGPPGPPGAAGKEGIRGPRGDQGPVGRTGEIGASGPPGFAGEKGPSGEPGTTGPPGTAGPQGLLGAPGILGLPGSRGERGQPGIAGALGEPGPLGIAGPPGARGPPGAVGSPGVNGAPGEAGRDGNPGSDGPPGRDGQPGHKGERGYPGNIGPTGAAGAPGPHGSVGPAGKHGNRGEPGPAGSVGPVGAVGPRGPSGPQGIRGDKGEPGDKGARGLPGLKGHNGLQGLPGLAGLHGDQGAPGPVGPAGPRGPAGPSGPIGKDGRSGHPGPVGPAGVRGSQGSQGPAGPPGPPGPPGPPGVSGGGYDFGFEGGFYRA
T2 sequence (P02452 162-1218 limits assumed, chain 1 of 2): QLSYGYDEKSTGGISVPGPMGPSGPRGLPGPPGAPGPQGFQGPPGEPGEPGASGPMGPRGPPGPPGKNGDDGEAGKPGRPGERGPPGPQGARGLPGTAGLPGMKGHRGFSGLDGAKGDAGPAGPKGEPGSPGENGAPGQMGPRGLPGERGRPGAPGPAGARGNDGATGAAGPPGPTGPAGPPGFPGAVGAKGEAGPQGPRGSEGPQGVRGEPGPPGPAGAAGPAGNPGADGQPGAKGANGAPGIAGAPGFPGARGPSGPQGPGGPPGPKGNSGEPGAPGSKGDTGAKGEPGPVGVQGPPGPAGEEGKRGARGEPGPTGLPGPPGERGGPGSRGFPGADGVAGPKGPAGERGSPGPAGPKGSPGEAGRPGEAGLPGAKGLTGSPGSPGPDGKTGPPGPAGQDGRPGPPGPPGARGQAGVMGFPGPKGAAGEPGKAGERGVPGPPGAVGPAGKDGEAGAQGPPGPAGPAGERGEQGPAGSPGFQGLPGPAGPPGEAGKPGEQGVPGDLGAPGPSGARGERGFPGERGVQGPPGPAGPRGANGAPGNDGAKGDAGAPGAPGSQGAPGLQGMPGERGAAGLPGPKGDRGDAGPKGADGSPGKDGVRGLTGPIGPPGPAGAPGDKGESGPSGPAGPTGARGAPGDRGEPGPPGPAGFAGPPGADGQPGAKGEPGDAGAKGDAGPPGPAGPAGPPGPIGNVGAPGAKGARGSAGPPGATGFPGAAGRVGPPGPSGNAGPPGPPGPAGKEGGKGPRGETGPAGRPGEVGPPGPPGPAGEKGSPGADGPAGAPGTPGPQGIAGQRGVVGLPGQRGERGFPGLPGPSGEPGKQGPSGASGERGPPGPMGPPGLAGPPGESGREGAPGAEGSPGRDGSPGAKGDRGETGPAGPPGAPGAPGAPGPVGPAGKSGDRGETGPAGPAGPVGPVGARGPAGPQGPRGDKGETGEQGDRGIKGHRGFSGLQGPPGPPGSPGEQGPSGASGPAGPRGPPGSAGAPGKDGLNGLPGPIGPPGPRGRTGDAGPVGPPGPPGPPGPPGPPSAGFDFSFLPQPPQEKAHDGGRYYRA
T2 sequence (P08123 80-1119 limits assumed, chain 2 of 2): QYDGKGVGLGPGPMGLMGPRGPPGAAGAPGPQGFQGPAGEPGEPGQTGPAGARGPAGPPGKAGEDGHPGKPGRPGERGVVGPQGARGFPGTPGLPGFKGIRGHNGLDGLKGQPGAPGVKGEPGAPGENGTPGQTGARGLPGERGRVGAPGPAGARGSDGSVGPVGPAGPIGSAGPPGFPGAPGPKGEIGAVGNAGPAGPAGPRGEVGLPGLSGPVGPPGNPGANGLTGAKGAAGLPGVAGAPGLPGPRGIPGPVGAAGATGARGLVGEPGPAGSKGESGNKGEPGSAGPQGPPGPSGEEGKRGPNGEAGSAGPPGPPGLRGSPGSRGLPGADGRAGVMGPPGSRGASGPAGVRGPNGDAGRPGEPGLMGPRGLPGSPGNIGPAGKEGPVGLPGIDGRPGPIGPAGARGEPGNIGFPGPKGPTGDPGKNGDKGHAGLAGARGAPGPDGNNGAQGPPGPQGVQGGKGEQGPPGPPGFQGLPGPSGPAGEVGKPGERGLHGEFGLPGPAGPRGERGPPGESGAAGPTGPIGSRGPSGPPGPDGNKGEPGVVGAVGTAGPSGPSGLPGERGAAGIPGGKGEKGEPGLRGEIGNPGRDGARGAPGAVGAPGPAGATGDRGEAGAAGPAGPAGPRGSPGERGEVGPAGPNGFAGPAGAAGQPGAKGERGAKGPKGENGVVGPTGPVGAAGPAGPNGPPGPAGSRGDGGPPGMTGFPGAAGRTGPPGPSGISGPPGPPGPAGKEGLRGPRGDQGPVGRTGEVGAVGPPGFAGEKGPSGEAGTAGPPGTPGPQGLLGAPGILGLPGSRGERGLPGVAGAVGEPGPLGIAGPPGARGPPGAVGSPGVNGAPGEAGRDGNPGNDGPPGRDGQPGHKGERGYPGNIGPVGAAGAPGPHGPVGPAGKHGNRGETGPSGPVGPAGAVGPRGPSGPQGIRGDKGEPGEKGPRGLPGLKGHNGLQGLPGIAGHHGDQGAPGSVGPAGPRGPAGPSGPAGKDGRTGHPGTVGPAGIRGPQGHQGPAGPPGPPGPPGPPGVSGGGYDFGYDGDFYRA

B1: Compound ID 951 (peptide)
peptide: {Gd^T(3)}-GK([Gly-Gd^T(3)])WHCTTYFPHH[Bip]CLYG
modifications: disulfide 5-14
Regarding B1, in assay [1], the “% bound” value amounted to 32%.

B2: Compound ID 906 (peptide)
peptide: {Gd^T(3)}-GQWHCTTRFPHHY[Pen]LYG
modifications: disulfide 5-14; not fully specified (C-terminus)
For B2, in assay [2], the “% bound” value came to 13%.

B3: Compound ID 885 (peptide)
peptide: {Gd^T″}-GQWHCTTD[Phe(4-NH2)](Gd^T″)PHHYCLYG
modifications: disulfide 5-14 (inferred)
Consider B3, for which the “% bound” value in assay [2] was 16%.

B4: Compound ID 900 (peptide)
peptide: {Gd^T″}-GQWHCT[dR]RFPHHYCLYG
modifications: disulfide 5-14 (inferred); not fully specified (C-terminus)
In the case of B4, the “% bound” value in assay [1] was 1%.

B5: Compound ID 902 (peptide)
peptide: {Gd^T″}-GQWHCTTRFPHH[dR]CLYG
modifications: disulfide 5-14 (inferred); not fully specified (C-terminus)
With B5, the “% bound” value in assay [1] turned out to be 2%.

B6: Compound ID 898 (peptide)
peptide: {Gd^T″}-GQWHCT[dS]RFPHHYCLYG
modifications: disulfide 5-14 (inferred); not fully specified (C-terminus)
Turning to B6, the “% bound” value in assay [1] was 3%.

B7: Compound ID 1003 (peptide)
peptide: {Gd^T″}-K(Gd^T″)K(Lys(Gd^T)Gd^T)WHCYTYFPHHYCVYG
modifications: disulfide 5-14 (inferred); reading uncertain
Turning to B7, the “% bound” value in assay [1] was determined as 47%.

B8: Compound ID 936 (peptide)
peptide: {Gd^T″}-GQWHCTDRFPHHYCLYG
modifications: disulfide 5-14 (inferred)
B8: the “% bound” value in assay [2] turned out to be 9%.

B9: Compound ID 897 (peptide)
peptide: {Gd^T″}-GQWHCT[dN]RFPHHYCLYG
modifications: disulfide 5-14 (inferred); not fully specified (C-terminus)
For the molecule B9, the “% bound” value in assay [1] was 1%.

B10: Compound ID 966 (peptide)
peptide: {Gd^T″}-GK([Gly-Gd^T″])WHCTTLFPHHVCLYG
modifications: disulfide 5-14 (inferred)
For B10, the “% bound” value in assay [2] was 14%.

B11: Compound ID 940 (peptide)
peptide: Cbz-GQWHCTK(Gd^T″)RFPHHYCLYG
modifications: disulfide 5-14 (inferred)
For B11, the “% bound” value in assay [2] worked out at 9%.

B12: Compound ID 895 (peptide)
peptide: {Gd^T″}-GQWHCTTD[Tyr(3-Cl)]PHHYCLYG
modifications: disulfide 5-14 (inferred); not fully specified (C-terminus)
For B12, in assay [1], the “% bound” value worked out at 0%.

B13: Compound ID 905 (peptide)
peptide: {Gd^T″}-GQWHCTTRFPHH[dT]CLYG
modifications: disulfide 5-14 (inferred); not fully specified (C-terminus)
For the molecule B13, the “% bound” value in assay [1] amounted to 2%.

B14: Compound ID 824 (peptide)
peptide: {Gd^G}-PWTCSGDEYAWHCNY[dE]
modifications: disulfide 4-13 (inferred); not fully specified (C-terminus); reading uncertain
Regarding B14, the “% bound” value in assay [1] worked out at 0%; in assay [2], 12%.

B15: Compound ID 831 (peptide)
peptide: {Gd^T″}-DWTCSGDEYTWHCN[Tyr(3-I)]E
modifications: disulfide 4-13 (inferred); not fully specified (C-terminus)
Turning to B15, the “% bound” value in assay [1] was 21%; in assay [2], 50%.

B16: Compound ID 846 (peptide)
peptide: {Gd^T}-DWTCSGDE[Tyr(3-I)]TWHCNYE
modifications: disulfide 4-13 (inferred); not fully specified (C-terminus); reading uncertain
For B16, the “% bound” value turned out to be 9% in assay [1] and 31% in assay [2].

B17: Compound ID 848 (peptide)
peptide: {Gd^T}-DWTCSGDEYTWHCNYE
modifications: disulfide 4-13 (inferred); not fully specified (C-terminus); reading uncertain
As to B17, the “% bound” value in assay [1] turned out to be 9%; in assay [2], 35%.

B18: Compound ID 835 (peptide)
peptide: {Gd^T″}-DWTCS[dA]DEYTWHCNYE
modifications: disulfide 4-13 (inferred); not fully specified (C-terminus)
Turning to B18, the “% bound” value in assay [1] came out at 9%; in assay [2], 17%.

B19: Compound ID 834 (peptide)
peptide: {Gd^T″}-DWTCSGDEYYWHCNYE
modifications: disulfide 4-13 (inferred); not fully specified (C-terminus)
Turning to B19, the “% bound” value in assay [1] was 9%; in assay [2], 22%.

B20: Compound ID 828 (peptide)
peptide: {Gd^T″}-DWTC[Phe(4-CO2H)]GDEYTWHCNYE
modifications: disulfide 4-13 (inferred); not fully specified (C-terminus)
For B20, the “% bound” value in assay [1] worked out at 20%; in assay [2], 52%.

B21: Compound ID 1019 (peptide)
peptide: {Gd^T″}-GK([Gly-Gd^T″])WH[dC]TTK(Gd^T″)FPHHYCLY[Bip]
modifications: disulfide 5-14
For B21, the “% bound” value in assay [2] was found to be 14%.

B22: Compound ID 832 (peptide)
peptide: {Gd^T″}-GQWTCSGDEYAWHCNY[dE]
modifications: disulfide 5-14 (inferred); not fully specified (C-terminus)
As to B22, the “% bound” value in assay [2] is 12%.

B23: Compound ID 840 (peptide)
peptide: {Gd^T}-GQWACSGDEYTWHCNYE
modifications: disulfide 5-14 (inferred); not fully specified (C-terminus); reading uncertain
B23: the “% bound” value in assay [2] came to 15%.

B24: Compound ID 833 (peptide)
peptide: {Gd^T″}-GQWTCSGDEYTWACNYE
modifications: disulfide 5-14 (inferred); not fully specified (C-terminus)
As to B24, the “% bound” value in assay [2] is 13%.

B25: Compound ID 904 (peptide)
peptide: {Gd^T(3)}-GQWHCTTRFPHH[d1Nal]CLYG
modifications: disulfide 5-14; not fully specified (C-terminus)
As to B25, in assay [2], the “% bound” value stood at 0%.

B26: Compound ID 967 (peptide)
peptide: {Gd^T″}-GK([Gly-Gd^T″])WHCTTYFPHHYCL[Dip]G
modifications: disulfide 5-14 (inferred); not fully specified
B26: the “% bound” value in assay [2] stood at 11%.

B27: Compound ID 886 (peptide)
peptide: {Gd^T″}-GQWHCTTDFPH[Dap]YCLYG
modifications: disulfide 5-14
Take B27: the “% bound” value in assay [1] worked out at 13%.

B28: Compound ID 821 (peptide)
peptide: {Gd^G}-DWTCS[dR]DEYTWHCNYE
modifications: disulfide 4-13 (inferred); not fully specified (C-terminus); reading uncertain
In the case of B28, the “% bound” value is 29% in assay [1] and 56% in assay [2].

B29: Compound ID 829 (peptide)
peptide: {Gd^T″}-DWTCS[dY]DEYTWHCNYE
modifications: disulfide 4-13 (inferred); not fully specified (C-terminus)
For B29, the “% bound” value was 21% in assay [1] and 20% in assay [2].

B30: Compound ID 825 (peptide)
peptide: {Gd^T″}-DWTC[Tyr(Bn,3-Cl)]GDEYTWHCNYE
modifications: disulfide 4-13 (inferred); not fully specified (C-terminus)
For the molecule B30, the “% bound” value in assay [1] is 63%; in assay [2] it was 61%.

B31: Compound ID 847 (peptide)
peptide: {Gd^T}-DWTCS[dL]DEYTWHCNYE
modifications: disulfide 4-13 (inferred); not fully specified (C-terminus); reading uncertain
In the case of B31, the “% bound” value in assay [2] was found to be 16%.

B32: Compound ID 842 (peptide)
peptide: {Gd^T}-DWTCSGDEYTWYCNYE
modifications: disulfide 4-13 (inferred); not fully specified (C-terminus); reading uncertain
In the case of B32, the entries for the “% bound” value in assay [1] and in assay [2] were 9% and 23%, respectively.

B33: Compound ID 822 (peptide)
peptide: {Gd^G}-DWTCRGDEYTWHCNYE
modifications: disulfide 4-13 (inferred); not fully specified (C-terminus); reading uncertain
For B33, the “% bound” value came to 20% in assay [1] and 47% in assay [2].

B34: Compound ID 836 (peptide)
peptide: {Gd^T″}-DWTCS[dS]DEYTWHCNYE
modifications: disulfide 4-13 (inferred); not fully specified (C-terminus)
For B34, in assay [2], the “% bound” value stood at 13%.

B35: Compound ID 827 (peptide)
peptide: {Gd^T″}-DWTC[Phe(4-tBu)]GDEYTWHCNYE
modifications: disulfide 4-13 (inferred); not fully specified (C-terminus)
For the molecule B35, the figures for the “% bound” value in assay [1] and in assay [2] were 20% and 41%, respectively.

B36: Compound ID 968 (peptide)
peptide: {Gd^T″}-GK([Gly-Gd^T″])WHCTTYFPHH[Dip]CLYG
modifications: disulfide 5-14 (inferred); not fully specified
As for B36, the “% bound” value in assay [2] stood at 77%.
